Experimental data as given in the nanobody polyreactivity screen of Harvey et al. (2022).

Experiment: yeast display, Sf9 membrane polyspecificity reagent, FACS + sequencing; frameworks hold sequencing errors
Summary of the method: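 A synthetic nanobody library was expressed on Saccharomyces cerevisiae BJ5465 by galactose induction for 36–48 hours. The library was stained for 1 hour at 4 °C with 10% biotinylated, detergent-solubilized Sf9 membrane reagent and enriched with streptavidin microbeads before FACS. Low and high (top ~1%) gates were set on anti-HA fluorescence for expression and streptavidin fluorescence for reagent binding, and each polyreactivity label reflects the gate of origin.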

Row | Sequence | polyreactivity (PSR sort gate)
1 | QVQLVESGGGLVQAGGSLRLSCAASGRIFRQYAMGWYRQAPGKERELVAAITSGGSTNYADSVKGRFTISRDNAKNTVYLQMNSLKPEDTAVYYCNARWPYAYQDGYWGQGTQVTVSS | low polyreactivity
2 | QVQLVESGGGLVQAGGSLRLSCAASGRIFVGYAMGWYIQAPGKERELVAAINRSGSSTYYADSVKGRFTISRDNAKNTVYLQMNRLKPEDTAVYYCNARSGNRYGPRYDYWGQGTQVTVSS | high polyreactivity
3 | QVQLVESGGGLVQAGGSLRLSCAASGSIFRRNTMGWYRQAPGKERELVAAITFTGGRTYYADSVKGRFTISRDNAKNTVYLQMNSLKPEDTAVYYCNRVTAYYPTKFDYWGQGTQVTVSS | high polyreactivity
4 | QVQLVESGGGLVQAGGSLRLSCAASGIIFYGYAMGWYRQAPGKERELVATISTGGRTNYADSVKGRFTISRDNAKNTVYLQMNSLKPEDTAVYYCAARSFWTYRSGGPSDYYYWGQGTQVTVSS | high polyreactivity
5 | QVQLVESGGGVVQAGGSLRLSSAASGIIFKRYAMGWYRQAPGKEREFVAAISRSGVRTYYADSVKGRFTISRDNAKNTVFLQMNSLNPEDTAVYYCAAEFANYRDTGESVYWFYYWGQGTQVTVSS | high polyreactivity
6 | QVQLVESGGGLVQAGGSLRLSCAASGIFAYYVMGWYRQAPGKERELVADISRGGSTNYADSVKGRFTISRDNAKNTVYLQMISLKPEDSAVYYCNARSYYPWEGYDYWGQGTQVTVSS | low polyreactivity
7 | QVQLVESGGGLVQAGGSLRLSCAASGRTFNRYAMGWYRQAPGKERELVAAISWRGDSTYYADSVKGRFTISRDNAKNTVYLQMNSLKPEDTAVYYCAARGNFWGQGTQVTVSS | high polyreactivity
8 | QVHLQDSGVGLVQAGGSLRLSCAASGSIFGSGSMGWFRQAPGKERELVATINNGSSTYYADSVKGRFTISRDNAKNTVYLQMNSLKPEDTAVYYCAVYLYRLTFFYYWGQGNQVTVSS | high polyreactivity
9 | QVQLVESGGGLVQAGGSLRLSCAASGSTLYPYAMGWYRQAPGKEWELVAVITLRGGSTYYADSVKGRFTISRDNAKNSVSVQMKSLKPEDTAVYYCAADPRKVHSDDYDYWGQGTQVNVSS | high polyreactivity
10 | QVHLVESVGGLVQAGGSLRLSCAASGRTFPYNAMGWYIQAPGKERELVAVISKGGGRTYYADSVKGRFTISLDNAKNTVYLQMNSLKPEDTAVYYCDARYDGSSDYRLNYWGQGTQVTVSS | high polyreactivity
11 | QVQLVESGGGLVQAGGSLRLSCAASGGIFDGNAMGWYRQAPGKERELVAAISSGGITKYADSEKGRFTISRDNAKNTVYLQMNSLKPEDTAVYYCAASWYRYRFIRYDYWGQGTQVTVSS | high polyreactivity
12 | QVQLVESGGGLVQAGGSLRLSCAASGITFYWYTMGWYRQAPGKERELVADIDGDGGSTYYAVSVKGRFTISRDNAKNTVYLLMNSVKPEDTGVYFCAAQVWPWGYDYWGQGTQVTVSS | high polyreactivity
13 | QVQLVESGGGLVQAGGSLRLSWAASGHTFHGYDMGWYRQEPGKERDLVAAITSTGGSTHYSDSVKGRFTISRDNAKNTVYLQMNSLKPEDTAVFFCANRSYGLTRAYSAGNFWGQGTQVTVSS | low polyreactivity
14 | QVQLVESGGGLVQAGGSLRLSCDASASILRENAMGWYRQAPGKERELVAVITRGGNTYYADSVKGRFTISRDNAKNTVYLQMNSLKPEDTAVYYCAAKRRERYGQTYGYWGQGTQVTVSS | high polyreactivity
15 | QVQDVESGGGLVQAGGSLRLSCAAYGFIFYSYAMGWYRQAPGKERELVAAISTGDGSTTFADSVKGRFTISRDNAKNSVYLQMNSLKPEDTAVYYCNVKYRACYRTDFEYWGQGTQVTVSS | low polyreactivity
16 | QVQLVESGGGLVQAGGSLRLSCAASGSIFRVYAMGWYRQAPGKERELVAGITWTGTRTYYADSVKGRFTISRDNAKNTVYLQMNSLKPEDTAVYYCAARYTIRYKRYDYWGQGTQVTVSS | high polyreactivity
17 | QVQLVESGGGLVQAGGSLRLSCAASGRIFDRYAMGWYREAPGKERELVAAISGSGGRTYYADSVKGRFTISRDNAKNTVYLQMNSLKPEDTAVYYCAVKFSLYGQGYPKGDYWGQGTQVTVSS | high polyreactivity
